This series concerns the target PD-L1 (programmed death-ligand 1) (UniProt Q9NZQ7 Q9NZQ7:19-238). Put plainly: inhibition; PD-1/PD-L1 binding ELISA. The protocol:
PD-1/PD-L1 binding inhibition of the synthetic fragment aptamer was determined by conducting a purified protein-based test. Purified protein-based PD-1/PD-L1 binding inhibition test (BPS, USA) was conducted by ELISA method based on horseradish peroxidase (HRP). First, purified PD-L1 protein according to the product manual was fixed on a 96 well plate, and then each well was washed with Immuno Buffer 1 for a total of 3 times in order to remove unbound PD-L1 protein. Aptamers were prepared in a selection buffer for each experimental concentration and slowly cooled from 95° C. to 37° C. by 0.1° C. per second. 5 μL of the aptamer was added to the well to which PD-L1 protein was fixed, followed by adding 20 μL of Biotin-bound PD-1 protein prepared according to the corresponding instructions to each well again. […] After adding 100 μL of the HRP substrate mixture to the well, from which the supernatant was removed, a fluorescent intensity was measured using a luminometer so as to determine the inhibition of PD-1/PD-L1 binding. IC₅₀ (50% inhibitory concentration) was calculated using the online tool.
Aptamer PD-1/PD-L1 binding inhibitory activity described in Table 6 of Example 1.3.1 was measured in the same manner as in Example 1.2.2.
(An ELISA detects its analyte on a solid surface through an enzyme-linked reagent.)

Sequence of PD-L1 (programmed death-ligand 1) (Q9NZQ7 19-238, one chain of several): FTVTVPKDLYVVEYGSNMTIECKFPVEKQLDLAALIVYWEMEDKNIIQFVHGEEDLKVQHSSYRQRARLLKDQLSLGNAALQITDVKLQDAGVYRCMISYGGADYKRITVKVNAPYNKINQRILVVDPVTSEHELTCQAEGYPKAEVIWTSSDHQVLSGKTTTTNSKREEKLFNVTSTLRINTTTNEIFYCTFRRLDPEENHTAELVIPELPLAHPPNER

A word on the IC50: it is the concentration needed to halve the response being measured. A higher IC50 goes with lower potency. Consider AAGTTTTTGATTGTACCTTAGTG (ssDNA, Bz-dU at every n) [PL021], for which the IC50 stood at 27.7 nM.

For the origin of these results see US20230055235, “ANTI-CANCER IMMUNOTHERAPEUTIC COMPOSITION FOR TREATING CANCER” (INTEROLIGO CORPORATION., published 2023).
